From PMC8056151

Target: AG-tagged DDB1 (DNA damage-binding protein 1) (human) (UniProt Q16531)
Experiment: Fluoppi

UniProt Q16531, sequence (Q16531 whole entry): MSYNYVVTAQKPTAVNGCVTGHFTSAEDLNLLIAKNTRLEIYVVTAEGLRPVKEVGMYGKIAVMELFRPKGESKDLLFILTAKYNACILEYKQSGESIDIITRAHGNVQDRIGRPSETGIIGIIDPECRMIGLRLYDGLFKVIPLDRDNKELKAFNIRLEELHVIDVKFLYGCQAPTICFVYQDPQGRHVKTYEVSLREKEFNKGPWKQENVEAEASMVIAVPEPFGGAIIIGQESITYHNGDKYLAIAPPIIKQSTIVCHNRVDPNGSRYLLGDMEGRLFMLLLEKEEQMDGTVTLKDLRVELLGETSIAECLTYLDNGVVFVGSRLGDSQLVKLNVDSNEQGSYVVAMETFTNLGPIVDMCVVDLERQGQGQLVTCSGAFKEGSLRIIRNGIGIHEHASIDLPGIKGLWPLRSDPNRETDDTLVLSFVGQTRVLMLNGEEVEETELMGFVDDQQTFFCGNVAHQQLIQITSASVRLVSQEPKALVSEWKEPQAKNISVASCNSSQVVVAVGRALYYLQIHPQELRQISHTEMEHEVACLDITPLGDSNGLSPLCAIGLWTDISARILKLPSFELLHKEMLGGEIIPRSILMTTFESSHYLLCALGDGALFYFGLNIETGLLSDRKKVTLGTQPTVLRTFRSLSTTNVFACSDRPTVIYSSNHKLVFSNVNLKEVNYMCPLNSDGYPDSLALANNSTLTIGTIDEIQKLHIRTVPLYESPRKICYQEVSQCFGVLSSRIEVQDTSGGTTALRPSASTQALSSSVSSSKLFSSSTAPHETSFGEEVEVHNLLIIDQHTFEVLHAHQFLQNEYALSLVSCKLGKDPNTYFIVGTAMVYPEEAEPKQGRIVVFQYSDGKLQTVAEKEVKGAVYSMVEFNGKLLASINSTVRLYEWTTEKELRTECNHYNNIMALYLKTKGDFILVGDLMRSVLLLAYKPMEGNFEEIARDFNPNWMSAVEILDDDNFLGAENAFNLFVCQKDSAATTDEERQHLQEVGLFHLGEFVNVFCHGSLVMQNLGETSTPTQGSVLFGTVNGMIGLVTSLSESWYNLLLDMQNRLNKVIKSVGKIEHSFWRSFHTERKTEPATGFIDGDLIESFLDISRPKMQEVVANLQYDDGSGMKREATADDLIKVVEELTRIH

Question: Which percent of fluorescent puncta left with NTZ does the source give for “Ash-tagged hepatitis B virus X protein (full-length HBx, wild type) (natural protein)” here?
Answer: The percent of fluorescent puncta left with NTZ was 50%.
